A word on the Kd: it is the free concentration of one partner at which half of the binding sites on the other are occupied at equilibrium, for simple one-to-one binding.

Among the data in publication PMC9812933 are Kd and fraction of CheA bound values, retold here.

For experiment [1], the target named is CheA (Escherichia coli) (UniProt P07363). Conditions: cited from earlier work.
The target in experiment [2] is cytoplasmic fragment of the E coli Asp receptor (CF4Q) (E. coli). Put plainly: co-sedimentation.

In the case of CheA (from UniProt P07363), the Kd in experiment [1] is 490 nM.

B1: chemotaxis histidine kinase (CheA) (enzyme)
chain: MSMDISDFYQTFFDEADELLADMEQHLLVLQPEAPDAEQLNAIFRAAHSIKGGAGTFGFSVLQETTHLMENLLDEARRGEMQLNTDIINLFLETKDIMQEQLDAYKQSQEPDAASFDYICQALRQLALEAKGETPSAVTRLSVVAKSEPQDEQSRSQSPRRIILSRLKAGEVDLLEEELGHLTTLTDVVKGADSLSAILPGDIAEDDITAVLCFVIEADQITFETVEVSPKISTPPVLKLAAEQAPTGRVEREKTTRSNESTSIRVAVEKVDQLINLVGELVITQSMLAQRSSELDPVNHGDLITSMGQLQRNARDLQESVMSIRMMPMEYVFSRYPRLVRDLAGKLGKQVELTLVGSSTELDKSLIERIIDPLTHLVRNSLDHGIELPEKRLAAGKNSVGNLILSAEHQGGNICIEVTDDGAGLNRERILAKAASQGLTVSENMSDDEVAMLIFAPGFSTAEQVTDVSGRGVGMDVVKRNIQKMGGHVEIQSKQGTGTTIRILLPLTLAILDGMSVRVADEVFILPLNAVMESLQPREADLHPLAGGERVLEVRGEYLPIVELWKVFNVAGAKTEATQGIVVILQSGGRRYALLVDQLIGQHQVVVKNLESNYRKVPGISAATILGDGSVALIVDVSALQAINREQRMANTAA
The molecule B1 showed a fraction of CheA bound in experiment [2] of 88%.
